US20070172470A1, “Phosphatase regulation of nucleic acid transcription” (The Regents of the University of California, priority 2003, published 2007)

Key:
[1] = molecular target: T1, RNAP IIO (Bos taurus, UniProt G3MZY8); experiment: CTD phosphatase assay with RNAP IIO as substrate; format: biochemical, calf
T1 construct: Calf thymus RNAP IIA was purified; from tissue; host or cells: calf thymus
Experimental: FIGS. 2C and 2D show a CTD phosphatase assay of FCP1 and SCP1 on GST-CTDo and RNAP IIO prepared by MAPK2/ERK2. Increasing amounts of FCP1 or GST-SCP1 214 were assayed in the presence of 75 fmol GST-CTDo (lanes 1-6), 75 fmol RNAP IIO (lanes 7-12), or 75 fmol GST-CTDo and 75. fmol RNAP IIO (lanes 13-18). Both GST-CTDo and RNAP IIO substrates were prepared by the in vitro phosphorylation of CKII-labeled GST-CTDa or RNAP IIA by MAPK2/ERK2. All reactions were carried out in the presence of 7 pmol RAP74. CTD dephosphorylation of both GST-CTDo and RNAP IIO is shown by the increase in mobility of GST-CTDo to GST-CTDa and subunit IIo to IIa, respectively. The difference in the intensity of radiolabeled GST-CTDoand that of radiolabeled subunit IIo is not a reflection of a difference in the amount of substrates present, but of the higher efficiency with which CKII incorporates radiolabeled phosphates onto the most C-terminal serine of GST-CTDa compared to subunit. IIa.
Increasing amounts of GST-SCP1 214 were assayed in the presence of 3.7 fmol RNAP IIO prepared by CTDK1/CTDK2, TFIIH, P-TEFb, MAPK2/ERK2 and Cdc2 kinase. All reactions were carried out in-the presence of 7 pmol. RAP74. CTD dephosphorylation of RNAP IIO isozymes. by qSTSCP1 214 is shown by an increase in mobility of subunit IIo to that of IIa. The results are summarized in the graph showing the percent of RNAP IIO remaining as a function of increasing SCP1 concentrations.
Preparation and Purification of ^32P-RNAP IIO Isozymess and ^32P-GST-CTDo: Calf thymus RNAP IIA was purified by the method of Hodo and Blatti (30) with modifications as described by Kang and Dahmus (31). Specific isozymes of ^32p-labeled RNAP IIO were prepared by phosphorylation at the most C-terminal serine (CKII site) in the largest subunit of purified RNAP IIA with recombinant CKII and […], followed by CTD phosphorylation in the presence of 2 mM ATP with either purified CTDK1/CTDK2, TFIIH, P-TEFb, recombinant MAPK2/ERK2 or recombinant Cdc2 kinase. The RNAP IIO isozymes were individually purified over a DE53 column with a step elution of 500 mM KCl (28). Because only the most C-terminal serine is labeled with ^32p and lies outside. the consensus repeat, dephosphorylation by CTD phosphatase results in an electrophoretic mobility shift in SDS-PAGE of subunit IIo to the position of subunit IIa without the loss of label. Similarly, ^32P-labeled GST-CTDo was prepared from GST-CTDa by CKII followed by MAPK2/ERK2. GST-CTDo was purified over a glutathione-agarose column with a step elution of 15 mM glutathione.
CTD phosphatase assays utilizing RNAP IIO and GST-CTDo as substrate were performed as described previously (32) with minor modifications. Reactions were performed in 20 μl of CTD phosphatase buffer (50 mM Tris-HCl, pH 7.9, 10 mM MgCl2, 20% glycerol, 0.025% Tween 80, 0.1 mM EDTA, 5 mM DTT) in the presence of 20 mM KCl. Each reaction contained specified amounts of GST-CTDo and/or RNAP IIO and was carried out in the presence of 7 pmol RAP74. Reactions were initiated by the addition of FCP1 or SCP1 and incubated at 30° C. for 30 minutes. Assays were terminated by the addition of 5× Laemmli buffer, and RNAP II subunits and GST-CTD were resolved on a 5% SDS-PAGE gel. The gel images were developed by autoradiography and scanned by Molecular Dynamics Image Scanner Storm 860 in the phosphor screen mode. Data were quantitatively analyzed by ImageQuant software.

[2] = system: ElALuc, pGL3-Luc and Gal4-TATA-Luc constructs; experiment: Luciferase reporter assay, basal promoter activity; format: cell-based, human; details: cotransfected
Source text: Gal4-DNA binding domain-SCP1 fusion protein expression plasmids-were cotransfected in HEK293 cells with a Gal 4-TKLuc reporter plasmid and luciferase gene expression quantitated. In all panels, results of triplicate transfections are shown +/− SD. Data is expressed as fold-activation experimental/control). […] The indicated amounts of SCP1 or mutant SCP1 expression plasmids were cotransfected in HEK293 cells along with Gal 4-VP16 expression and Gal 4-TK-Luc reporter plasmids and luciferase activity was quantitated. […] The indicated receptor expression plasmids were cotransfected with their cognate promoter-reporter plasmids with or without SCP1 or mutant SCP1 expression plasmids. Cells were treated or untreated with receptor-specific ligands as described infra. […] The indicated concentrations of SCP1 and mutant SCP1 expression plasmids were cotransfected with LMX1 and E47 expression plasmids and the rat insulin 1 promoter-luciferase reporter gene. Luciferase activity was measured as described.
Tissue Culture and Transfections: Human 293, COS7 and CV1 cells were grown at 37° C. in DMEM supplemented with 10% normal calf serum (BRL). Sub-confluent cells were transfected in 6 well tissue culture dishes using Effectene (Qiagen) according to the manufacturer's instructions. Reporter and activator plasmids (100 ng each) and Flag SCP1 (80 ng) or its mutant were used per well. […]

[3] = 3.7 fmol RNAP IIO, 7 pmol RAP74

B1: SCP1: small CTD phosphatase-1, full-length 261 aa human protein, SEQ ID NO:2 (protein, listed as Homo sapiens)
chain: MDSSAVITQISKEEARGPLRGKGDQKSAASQKPRSRGILHSLFCCVCRDDGEALPAHSGAPLLVEENGAIPKTPVQYLLPEAKAQDSDKICVVIDLDETLVHSSFKPVNNADFIIPVEIDGVVHQVYVLKRPHVDEFLQRMGELFECVLFTASLAKYADPVADLLDKWGAFRARLFRESCVFHRGNYVKDLSRLGRDLRRVLILDNSPASYVFHPDNAVPVASWFDNMSDTELHDLLPFFEQLSRVDDVYSVLRQPRPGS
dephosphorylation of RNAP IIO generated by Abl tyrosine kinase [1]: unable to dephosphorylate | dephosphorylation of RNAP IIO generated by TFIIH [1, 3]: most efficiently dephosphorylates | dephosphorylation of RNAP IIO prepared with Cdc2 kinase [1, 3]: unable to dephosphorylate | dephosphorylation of RNAP IIO isozymes prepared with P-TEFb, MAPK2/ERK2 and CTDK1/CTDK2 ([1]; relative to RNAP IIO prepared with TFIIH): reduced rate | reporter gene expression from basal promoter constructs [2]: no significant effect
